The source of these data is patent publication US20150119475.

For the series, the target named is Snail protein (SNAI1/Snail, expressed as GST fusion in E. coli, GST moiety cleaved with thrombin), O95863.
Sequence of Snail protein (SNAI1/Snail, expressed as GST fusion in E. coli, GST moiety cleaved with thrombin), O95863 (O95863 whole entry, the tested form may be a part): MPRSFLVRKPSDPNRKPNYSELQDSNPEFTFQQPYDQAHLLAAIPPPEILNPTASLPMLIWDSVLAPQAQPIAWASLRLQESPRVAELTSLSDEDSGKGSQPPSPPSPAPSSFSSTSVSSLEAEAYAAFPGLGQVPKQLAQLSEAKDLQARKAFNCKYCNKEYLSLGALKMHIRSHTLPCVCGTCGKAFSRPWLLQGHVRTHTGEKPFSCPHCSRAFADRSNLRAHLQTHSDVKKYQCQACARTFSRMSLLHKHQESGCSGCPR

B1: recombinant Akt1 (ProQinase GmbH) (protein)
chain: VADGLKKQEEEEMDFRSGSPSDNSGAEEMEVSLAKPKHRVTMNEFEYLKLLGKGTFGKVILVKEKATGRYYAMKILKKEVIVAKDEVAHTLTENRVLQNSRHPFLTALKYSFQTHDRLCFVMEYANGGELFFHLSRERVFSEDRARFYGAEIVSALDYLHSEKNVVYRDLKLENLMLDKDGHIKITDFGLCKEGIKDGATMKTFCGTPEYLAPEVLEDNDYGRAVDWWGLGVVMYEMMCGRLPFYNQDHEKLFELILMEEIRFPRTLGPEAKSLLSGLLKKDPKQRLGGGSEDAKEIMQHRFFAGIVWQHVYEKKLSPPFKPQVTSETDTRYFDEEFTAQMITITPPDQDDSMECVDSERRPHFPQFSYSASGTA
Consider B1, for which the “in vitro kinase assay with 32P-ATP, detected by autoradiography” value is “Akt1 and Akt3 kinases are able to directly phosphorylate Snail protein”.
